From patent US20130330359A1

Assays:
[1] = target: carrier free RGMc (R&D Systems) (human) (UniProt Q6ZVN8); assay: direct EIA: carrier-free RGMc coated at 0.5 ug/mL; sample at 2 ug/ml; goat anti-mouse IgG-HRPO
[2] = target: carrier free RGMa (R&D Systems) (UniProt Q96B86); assay: direct EIA: carrier-free RGMa coated at 0.5 ug/mL; sample at 2 ug/ml; goat anti-mouse IgG-HRPO
[3] = target: carrier free RGMb (R&D Systems) (UniProt Q6NW40); assay: direct EIA: carrier-free RGMb coated at 0.5 ug/mL; sample at 2 ug/ml; goat anti-mouse IgG-HRPO
carrier free RGMb (R&D Systems), sequence (Q6NW40 46-413 limits assumed): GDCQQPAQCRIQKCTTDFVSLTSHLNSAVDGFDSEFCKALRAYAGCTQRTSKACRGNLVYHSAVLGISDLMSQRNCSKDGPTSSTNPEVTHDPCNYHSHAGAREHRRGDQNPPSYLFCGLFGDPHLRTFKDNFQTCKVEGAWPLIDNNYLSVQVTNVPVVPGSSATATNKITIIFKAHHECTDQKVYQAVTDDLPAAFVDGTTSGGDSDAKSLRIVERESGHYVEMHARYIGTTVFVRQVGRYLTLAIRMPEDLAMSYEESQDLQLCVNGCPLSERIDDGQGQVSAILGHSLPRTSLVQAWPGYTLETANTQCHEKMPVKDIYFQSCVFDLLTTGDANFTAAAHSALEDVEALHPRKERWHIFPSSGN

carrier free RGMc (R&D Systems) (human), sequence (Q6ZVN8 36-400 limits assumed): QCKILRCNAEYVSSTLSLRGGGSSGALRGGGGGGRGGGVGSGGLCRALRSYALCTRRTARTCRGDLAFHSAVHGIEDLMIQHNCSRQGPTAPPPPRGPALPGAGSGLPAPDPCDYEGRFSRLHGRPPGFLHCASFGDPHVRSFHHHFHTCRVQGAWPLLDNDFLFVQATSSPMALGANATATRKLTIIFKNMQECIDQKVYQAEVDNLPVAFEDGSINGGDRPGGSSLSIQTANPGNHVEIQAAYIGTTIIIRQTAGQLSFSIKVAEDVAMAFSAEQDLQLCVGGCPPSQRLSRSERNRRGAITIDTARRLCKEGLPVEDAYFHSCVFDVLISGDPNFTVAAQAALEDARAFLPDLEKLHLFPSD
carrier free RGMa (R&D Systems), sequence (Q96B86 48-422 limits assumed): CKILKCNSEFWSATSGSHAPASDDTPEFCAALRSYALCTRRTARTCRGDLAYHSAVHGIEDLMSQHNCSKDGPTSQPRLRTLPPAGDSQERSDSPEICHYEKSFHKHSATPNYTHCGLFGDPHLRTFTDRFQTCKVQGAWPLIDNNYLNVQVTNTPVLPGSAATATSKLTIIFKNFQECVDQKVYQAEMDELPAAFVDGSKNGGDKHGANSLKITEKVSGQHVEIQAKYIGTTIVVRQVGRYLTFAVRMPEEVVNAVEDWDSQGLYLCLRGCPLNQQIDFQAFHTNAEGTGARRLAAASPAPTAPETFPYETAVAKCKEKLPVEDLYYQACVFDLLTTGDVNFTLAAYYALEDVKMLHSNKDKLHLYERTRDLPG

absorbance at 492 nm [1]: 0.14
absorbance at 492 nm [2]: 0.1
absorbance at 492 nm [3]: 0.09
Substance: negative control: purified mouse mAb from an irrelevant / different antigen system (antibody)
